Patent publication US20240166765A1, “INFLAMMATORY DISEASE TREATMENT USING ANTI-TISSUE FACTOR ANTIBODIES” (Iconic Therapeutics LLC, priority 2020, published 2024)

How the values were obtained:
Assay in all cases: Epitope binning, chimeric TF construct mapping (live cell staining assay)
Format in all cases: binding
[1] = molecular target: T1, chimeric human-rat TF constructs expressed on HEK293 cells (Homo sapiens, UniProt P13726); settings: construct hTF
T1 construct: expressed in transfected cells; host or cells: HEK293
Method: (§1) To establish binding of the anti-human TF antibodies to the various TF constructs, HEK293 cells were transfected with a DNA plasmid that co-expresses the TF construct and a green fluorescent protein marker. For a subset of the antibodies, an antibody titration (a 12-point 1:3 dilution series starting at 250 nM) was evaluated on select TF constructs (See international PCT application PCT/US2019/012427 and U.S. utility application Ser. No. 16/959,652, incorporated herein by reference in their entirety). […] Two days after transfection, cells were collected from the tissue culture plate, stained with 15 μg/ml of the indicated anti-TF antibody, washed, stained with anti-human IgG-Fc Alexa Fluor 647 polyclonal antibody, washed, and stained with the viability dye 4′,6-Diamidino-2-Phenylindole, Dihydrochloride. Upon acquisition of 80,000 live events on a flow cytometer, live cells marked with the fluorescent marker were analyzed for the degree of staining by the anti-TF antibody. […] As used herein, the term “live cell staining assay” refers to the antibody binding assay used in this example.
(§2) When “Percentage antibody binding to TF construct relative to hTF” in Tables 51 and 52 was less than 50%, the antibody was considered a non-binder (0) in Tables 53 and 54.

[2] = molecular target: T2, chimeric human-rat TF constructs expressed on HEK293 cells (Homo sapiens, UniProt P13726, A200N/D212E/E215V/K197R/K201T/N203H/N216S/S192D/S195T/S220F/V221A); settings: construct h159-189_r (11); human segment replaced by rat segment
T2 construct: expressed in transfected cells; host or cells: HEK293
Method: as §1, §2

[3] = molecular target: T3, chimeric human-rat TF constructs expressed on HEK293 cells (Homo sapiens, UniProt P13726, D177Q/I184G/K181N/N170G/R168K/S174T/T186I/W190R/Y188T); settings: construct h133-158_r (9); human segment replaced by rat segment
T3 construct: expressed in transfected cells; host or cells: HEK293
Method: as §1, §2

[4] = molecular target: T4, chimeric human-rat TF constructs expressed on HEK293 cells (Homo sapiens, UniProt P13726, D177Q/S174T); settings: construct h140-145_r (2); human segment replaced by rat segment
T4 construct: expressed in transfected cells; host or cells: HEK293
Method: as §1, §2

[5] = molecular target: T5, chimeric human-rat TF constructs expressed on HEK293 cells (Homo sapiens, UniProt P13726, D212E/E215V/N216S/S220F/V221A); settings: construct h175-189_r (5); human segment replaced by rat segment
T5 construct: expressed in transfected cells; host or cells: HEK293
Method: as §1, §2

[6] = molecular target: T6, chimeric human-rat TF constructs expressed on HEK293 cells (Homo sapiens, UniProt P13726, D76N/E58Q/F108L/F82T/G75R/K100N/K47I/K73R/L104E/N50D/Q101W/Q64Y/S79Y/T72D/V62T/V65T/Y83G); settings: construct h1-77_r (25); human segment replaced by rat segment
T6 construct: expressed in transfected cells; host or cells: HEK293
Method: as §1, §2

[7] = molecular target: T7, chimeric human-rat TF constructs expressed on HEK293 cells (Homo sapiens, UniProt P13726, E127T/E131K/E137D/L136R/N139K/P130R/S129A/T133L/Y126F); settings: construct h94-107_r (9); human segment replaced by rat segment
T7 construct: expressed in transfected cells; host or cells: HEK293
Method: as §1, §2

[8] = molecular target: T8, chimeric human-rat TF constructs expressed on HEK293 cells (Homo sapiens, UniProt P13726, K100N); settings: construct hTF_K68N
T8 construct: expressed in transfected cells; host or cells: HEK293
Method: as §1, §2

[9] = molecular target: T9, chimeric human-rat TF constructs expressed on HEK293 cells (Homo sapiens, UniProt P13726, K197R/S192D/S195T); settings: construct h159-166_r (3); human segment replaced by rat segment
T9 construct: expressed in transfected cells; host or cells: HEK293
Method: as §1, §2

[10] = molecular target: T10, chimeric human-rat TF constructs expressed on HEK293 cells (Homo sapiens, UniProt P13726, N170G/R168K); settings: construct h133-139_r (2); human segment replaced by rat segment
T10 construct: expressed in transfected cells; host or cells: HEK293
Method: as §1, §2

[11] = molecular target: T11, chimeric human-rat TF constructs expressed on HEK293 cells (Homo sapiens, UniProt P13726, N203H/T229K); settings: construct hTF_N171H_T197K
T11 construct: expressed in transfected cells; host or cells: HEK293
Method: as §1, §2

[12] = molecular target: T12, chimeric human-rat TF constructs expressed on HEK293 cells (Homo sapiens, UniProt P13726, P226F); settings: construct h190-219_r (16); human segment replaced by rat segment
T12 construct: expressed in transfected cells; host or cells: HEK293
Method: as §1, §2

TF-011 was tested, and the “Antibody binding to TF construct” value ([1]; Table 53) was 1 (between 50% and 150%, the antibody was considered a binder (1)), the “Antibody binding to TF construct” value ([1]; Table 54) was 1 (between 50% and 150%, the antibody was considered a binder (1)) and the “Antibody binding to TF construct” value [2] was 1 (between 50% and 150%, the antibody was considered a binder (1)). The “Antibody binding to TF construct” value [3] was 1 (between 50% and 150%, the antibody was considered a binder (1)), the “Antibody binding to TF construct” value [4] was 1 (between 50% and 150%, the antibody was considered a binder (1)) and the “Antibody binding to TF construct” value [5] was 1 (between 50% and 150%, the antibody was considered a binder (1)). The “Antibody binding to TF construct” value [6] was 0 (less than 50%, the antibody was considered a non-binder (0)), the “Antibody binding to TF construct” value [7] was 0 (less than 50%, the antibody was considered a non-binder (0)) and the “Antibody binding to TF construct” value [8] was 1 (between 50% and 150%, the antibody was considered a binder (1)). For the same substance, the “Antibody binding to TF construct” value [9] was 1 (between 50% and 150%, the antibody was considered a binder (1)), the “Antibody binding to TF construct” value [10] was 1 (between 50% and 150%, the antibody was considered a binder (1)) and the “Antibody binding to TF construct” value [11] was 1 (between 50% and 150%, the antibody was considered a binder (1)). For the same substance, the “Antibody binding to TF construct” value [12] was 1 (between 50% and 150%, the antibody was considered a binder (1)).
